# In patent EP3075390A1 (Immunomedics Inc., dated 2016):
# Key:
# [1] = molecular target: IGF-1R and EGP-1 together on MCF-7, DU-145 or ME-180 cells; assay: flow cytometry (FACScan) on MCF-7 cells; structural control construct
# [2] = molecular target: T1, recombinant human IGF-1R (rhIGF-1R) (human, UniProt P08069 31-935); assay: labeled antibody on rhIGF-1R-coated beads; competitor: unlabeled R1
# T1 construct: extracellular domain; also called immobilized recombinant human IGF-1R; IGF-1R-coated beads
# [3] = molecular target: IGF-1R on human cancer cell lines (human) (UniProt P08069); assay: 125I-IGF-1 binding to MCF-7L cells with antibody at 1000 ng/mL
# [4] = molecular target: IGF-1R on human cancer cell lines (human) (UniProt P08069); assay: 125I-IGF-1 binding to MCF-7L cells with antibody at 100 ng/mL
# [5] = molecular target: T1, recombinant human IGF-1R (rhIGF-1R); assay: labeled antibody on rhIGF-1R-coated beads; competitor: unlabeled MAB391
# [6] = molecular target: T1, recombinant human IGF-1R (rhIGF-1R); assay: labeled antibody on rhIGF-1R-coated beads; competitor: unlabeled 17-69
# [7] = molecular target: T1, recombinant human IGF-1R (rhIGF-1R); assay: labeled antibody on rhIGF-1R-coated beads; competitor: unlabeled 3B7
# [8] = molecular target: T1, recombinant human IGF-1R (rhIGF-1R); assay: labeled antibody on rhIGF-1R-coated beads; competitor: unlabeled 1-2
# [9] = molecular target: T1, recombinant human IGF-1R (rhIGF-1R); assay: labeled antibody on rhIGF-1R-coated beads; competitor: unlabeled 1H7
# [10] = molecular target: T1, recombinant human IGF-1R (rhIGF-1R); assay: labeled antibody on rhIGF-1R-coated beads; competitor: unlabeled cR1
# [11] = molecular target: T1, recombinant human IGF-1R (rhIGF-1R); assay: labeled antibody on rhIGF-1R-coated beads; competitor: unlabeled 24-57
# [12] = molecular target: T1, recombinant human IGF-1R (rhIGF-1R); assay: labeled antibody on rhIGF-1R-coated beads; competitor: unlabeled 2C8
# [13] = molecular target: T1, recombinant human IGF-1R (rhIGF-1R); assay: labeled antibody on rhIGF-1R-coated beads; competitor: unlabeled hR1
# [14] = molecular target: T1, recombinant human IGF-1R (rhIGF-1R); assay: labeled antibody on rhIGF-1R-coated beads; competitor: unlabeled αIR-3
# [15] = molecular target: T1, recombinant human IGF-1R (rhIGF-1R); assay: labeled antibody on rhIGF-1R-coated beads; competitor: unlabeled 24-60
# [16] = molecular target: T1, recombinant human IGF-1R (rhIGF-1R); assay: labeled antibody on rhIGF-1R-coated beads; competitor: unlabeled 24-31
# [17] = molecular target: IGF-1R and EGP-1 together on MCF-7, DU-145 or ME-180 cells; assay: flow cytometry (FACScan) on DU-145 cells; control antibody
# [18] = molecular target: IGF-1R and EGP-1 together on MCF-7, DU-145 or ME-180 cells; assay: flow cytometry (FACScan) on MCF-7 cells; control antibody
# [19] = molecular target: IGF-1R and EGP-1 together on MCF-7, DU-145 or ME-180 cells; assay: flow cytometry (FACScan) on ME-180 cells; control antibody
# EGP-1 [20] = molecular target: EGP-1 (UniProt P09758); assay: flow cytometry (FACScan) on ME-180 cells
# EGP-1 [21] = molecular target: EGP-1 (UniProt P09758); assay: flow cytometry (FACScan) on MCF-7 cells
# EGP-1 [22] = molecular target: EGP-1 (UniProt P09758); assay: flow cytometry (FACScan) on DU-145 cells
# [23] = molecular target: IGF-1R on human cancer cell lines (human) (UniProt P08069); assay: flow cytometry (FACScan) on ME-180 cells
# [24] = molecular target: IGF-1R on human cancer cell lines (human) (UniProt P08069); assay: flow cytometry (FACScan) on MCF-7 cells
# [25] = molecular target: IGF-1R on human cancer cell lines (human) (UniProt P08069); assay: flow cytometry (FACScan) on DU-145 cells
# [26] = molecular target: T1, recombinant human IGF-1R (rhIGF-1R); assay: PE-tagged MAB391 on IGF-1R-coated beads with R1 at 100 µg/mL
# [27] = molecular target: T2, recombinant human insulin receptor (rhIR) (human, UniProt P06213-2 28-944, limits assumed); assay: hybridoma screening, assay not described
# T2 construct: also called recombinant human IR
# [28] = molecular target: T2, recombinant human insulin receptor …; assay: ELISA on immobilized rhIR
# [29] = molecular target: T1, recombinant human IGF-1R (rhIGF-1R); assay: ELISA on immobilized rhIGF-1R (FIG. 3)
# Sequence of IGF-1R on human cancer cell lines (human) (P08069 31-1367): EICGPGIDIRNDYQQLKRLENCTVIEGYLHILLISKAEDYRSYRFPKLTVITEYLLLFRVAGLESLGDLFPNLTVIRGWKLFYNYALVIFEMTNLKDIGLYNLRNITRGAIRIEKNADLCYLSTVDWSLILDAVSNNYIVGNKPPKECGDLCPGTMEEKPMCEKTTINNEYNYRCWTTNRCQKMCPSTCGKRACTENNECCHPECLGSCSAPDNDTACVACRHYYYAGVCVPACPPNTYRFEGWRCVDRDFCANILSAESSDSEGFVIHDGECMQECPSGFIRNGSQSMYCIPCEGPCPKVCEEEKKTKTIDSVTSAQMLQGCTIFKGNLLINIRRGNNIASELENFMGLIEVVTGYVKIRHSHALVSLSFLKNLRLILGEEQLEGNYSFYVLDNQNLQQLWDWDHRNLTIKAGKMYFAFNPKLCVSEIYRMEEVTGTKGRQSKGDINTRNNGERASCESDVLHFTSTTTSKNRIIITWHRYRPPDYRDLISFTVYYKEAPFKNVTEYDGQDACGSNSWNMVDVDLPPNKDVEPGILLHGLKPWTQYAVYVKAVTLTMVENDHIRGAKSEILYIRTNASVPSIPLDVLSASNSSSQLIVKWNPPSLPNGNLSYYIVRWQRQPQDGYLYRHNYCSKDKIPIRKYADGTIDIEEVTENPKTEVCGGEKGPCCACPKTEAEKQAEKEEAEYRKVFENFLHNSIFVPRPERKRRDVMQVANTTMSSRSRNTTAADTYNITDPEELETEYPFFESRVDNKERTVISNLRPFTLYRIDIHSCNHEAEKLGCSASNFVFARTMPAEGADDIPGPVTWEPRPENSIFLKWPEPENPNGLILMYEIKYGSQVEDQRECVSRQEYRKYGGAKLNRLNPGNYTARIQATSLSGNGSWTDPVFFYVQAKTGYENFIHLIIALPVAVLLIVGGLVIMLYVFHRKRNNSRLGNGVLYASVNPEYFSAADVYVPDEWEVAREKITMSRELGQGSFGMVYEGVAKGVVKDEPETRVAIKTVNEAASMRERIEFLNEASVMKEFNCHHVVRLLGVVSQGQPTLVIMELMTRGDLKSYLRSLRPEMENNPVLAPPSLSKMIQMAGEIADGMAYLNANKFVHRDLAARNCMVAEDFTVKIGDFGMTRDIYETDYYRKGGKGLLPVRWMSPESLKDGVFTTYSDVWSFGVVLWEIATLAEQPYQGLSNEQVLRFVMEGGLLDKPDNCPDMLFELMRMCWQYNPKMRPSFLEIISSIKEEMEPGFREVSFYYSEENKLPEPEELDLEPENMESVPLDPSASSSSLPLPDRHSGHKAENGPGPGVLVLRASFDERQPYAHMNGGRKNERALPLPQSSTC
# Sequence of EGP-1 (P09758 27-323): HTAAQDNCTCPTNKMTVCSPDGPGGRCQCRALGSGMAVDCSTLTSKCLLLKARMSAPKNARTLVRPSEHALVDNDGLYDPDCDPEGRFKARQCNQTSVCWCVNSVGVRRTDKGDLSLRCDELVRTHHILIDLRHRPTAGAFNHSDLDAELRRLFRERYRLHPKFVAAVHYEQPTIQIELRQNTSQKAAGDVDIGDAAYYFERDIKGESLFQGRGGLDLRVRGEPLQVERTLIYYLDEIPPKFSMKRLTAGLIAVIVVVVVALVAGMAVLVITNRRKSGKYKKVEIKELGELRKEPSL
# T1 sequence (P08069 31-935): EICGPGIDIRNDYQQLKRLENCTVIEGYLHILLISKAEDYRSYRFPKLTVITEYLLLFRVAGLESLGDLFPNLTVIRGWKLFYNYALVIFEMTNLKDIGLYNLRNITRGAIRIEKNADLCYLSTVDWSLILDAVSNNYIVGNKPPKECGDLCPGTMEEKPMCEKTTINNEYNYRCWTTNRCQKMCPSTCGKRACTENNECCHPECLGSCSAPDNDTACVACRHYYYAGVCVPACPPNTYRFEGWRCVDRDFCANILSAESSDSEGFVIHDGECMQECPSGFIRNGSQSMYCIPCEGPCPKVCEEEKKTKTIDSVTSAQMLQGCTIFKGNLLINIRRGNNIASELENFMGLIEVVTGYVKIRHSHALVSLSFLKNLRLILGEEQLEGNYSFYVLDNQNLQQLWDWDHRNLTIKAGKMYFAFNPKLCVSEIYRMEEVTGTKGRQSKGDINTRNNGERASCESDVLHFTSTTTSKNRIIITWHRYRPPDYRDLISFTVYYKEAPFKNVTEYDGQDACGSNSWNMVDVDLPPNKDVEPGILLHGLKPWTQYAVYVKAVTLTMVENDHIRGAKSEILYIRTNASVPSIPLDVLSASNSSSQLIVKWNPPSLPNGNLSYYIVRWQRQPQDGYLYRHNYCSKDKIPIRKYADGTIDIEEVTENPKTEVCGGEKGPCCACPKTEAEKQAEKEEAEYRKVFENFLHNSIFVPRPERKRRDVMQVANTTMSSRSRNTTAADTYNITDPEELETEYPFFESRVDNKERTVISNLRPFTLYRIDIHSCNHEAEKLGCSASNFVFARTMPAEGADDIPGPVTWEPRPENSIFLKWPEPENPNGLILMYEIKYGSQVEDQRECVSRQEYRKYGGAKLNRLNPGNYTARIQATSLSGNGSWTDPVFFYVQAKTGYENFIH
# T2 sequence (P06213 other isoform, or with tags, fused parts or gaps limits assumed): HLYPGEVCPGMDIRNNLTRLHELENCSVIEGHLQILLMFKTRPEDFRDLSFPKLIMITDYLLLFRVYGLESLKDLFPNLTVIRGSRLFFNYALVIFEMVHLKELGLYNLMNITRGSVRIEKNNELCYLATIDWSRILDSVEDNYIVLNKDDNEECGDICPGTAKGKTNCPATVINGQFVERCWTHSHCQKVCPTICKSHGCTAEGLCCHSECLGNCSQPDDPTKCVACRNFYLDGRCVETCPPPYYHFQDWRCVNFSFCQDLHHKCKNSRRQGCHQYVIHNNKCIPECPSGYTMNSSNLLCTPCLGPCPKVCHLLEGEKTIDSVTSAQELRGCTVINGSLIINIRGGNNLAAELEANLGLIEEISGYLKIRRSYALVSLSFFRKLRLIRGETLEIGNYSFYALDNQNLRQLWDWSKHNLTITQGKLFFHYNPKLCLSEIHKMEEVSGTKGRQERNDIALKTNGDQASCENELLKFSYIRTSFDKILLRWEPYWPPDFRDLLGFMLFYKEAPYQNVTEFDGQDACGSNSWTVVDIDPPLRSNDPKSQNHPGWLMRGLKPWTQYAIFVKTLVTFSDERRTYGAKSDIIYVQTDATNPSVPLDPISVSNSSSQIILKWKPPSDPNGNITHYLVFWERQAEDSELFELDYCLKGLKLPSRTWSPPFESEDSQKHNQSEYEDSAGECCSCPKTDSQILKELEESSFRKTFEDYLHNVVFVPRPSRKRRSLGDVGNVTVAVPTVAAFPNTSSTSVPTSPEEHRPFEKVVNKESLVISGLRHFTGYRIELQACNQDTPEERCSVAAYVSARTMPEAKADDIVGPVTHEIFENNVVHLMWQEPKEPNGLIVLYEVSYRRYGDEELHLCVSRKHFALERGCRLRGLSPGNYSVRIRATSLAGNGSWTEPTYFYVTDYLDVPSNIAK
Molecule,% binding of labeled antibody [2] [%],% binding of labeled antibody [5] [%],% binding of labeled antibody [6] [%],% binding of labeled antibody [7] [%],% binding of labeled antibody [8] [%],% binding of labeled antibody [9] [%],% binding of labeled antibody [10] [%],% binding of labeled antibody [11] [%],% binding of labeled antibody [12] [%],% binding of labeled antibody [13] [%],% binding of labeled antibody [14] [%],% binding of labeled antibody [15] [%],% binding of labeled antibody [16] [%],further results
22-20 (DNL construct of hLL2 IgG-AD2 and hA20 Fab-DDD2) (bispecific antibody),,,,,,,,,,,,,,% Positive [1]: 3.1%; MFI [1]: 2.11
mouse anti-IGF-1R monoclonal antibody MAB391,40,0,,,,,,,,,,,,% binding of 125I-IGF-1 [3]: 38%; % binding of 125I-IGF-1 [4]: 54%
anti-IGF-1R antibody 24-60,0,0,82,79,100,100,0,88,88,0,21,0,18,
human IgG (control) (antibody),,,,,,,,,,,,,,% Positive [17]: 1.44%; MFI [17]: 2.21; % Positive [18]: 2.34%; MFI [18]: 1.84; % Positive [19]: 1.37%; MFI [19]: 1.8
Hex-hRS7 (hexavalent DNL construct of hRS7 IgG-AD2 and hRS7 Fab-DDD2),,,,,,,,,,,,,,% Positive (EGP-1 [20]): 100%; MFI (EGP-1 [20]): 59.6; % Positive (EGP-1 [21]): 99.9%; MFI (EGP-1 [21]): 35.7; % Positive (EGP-1 [22]): 93.7%; MFI (EGP-1 [22]): 17
anti-IGF-1R antibody αIR-3,86,0,89,76,95,115,97,87,97,107,0,0,52,
"humanized R1 antibody (hR1) (antibody, V domains shown) VH: QVQLQESGGGVVQPGRSLRLSCSASGFTFSDYYMYWVRQAPGKGLEWVAYITNYGGSTYYPDTVKGRFTISRDNAKNTLFLQMDSLRPEDTGVYFCARQSNYDYDGWFAYWGQGTPVTVSS VL: DIQLTQSPSSLSASVGDRVTITCKASQEVGTAVAWYQQKPGKAPKLLIYWASTRHTGVPSRFSGSGSGTDFTFTISSLQPEDIATYFCQQYSNYPLTFGQGTKVEIKR",0,121,100,100,100,131,0,100,100,0,136,71,100,% Positive [23]: 10.7%; MFI [23]: 3.65; % Positive [24]: 89.2%; MFI [24]: 9.93; % Positive [25]: 30.4%; MFI [25]: 5.33
"murine anti-IGF-1R antibody R1 (antibody, V domains shown, also called ML04R1; murine R1) VH: EVKLVESGGGLVQPGGSLKLSCATSGFTFSDYYMYWVRQTPEKRLEWVAYITNYGGSTYYPDTVKGRFTISRDNAKNTLYLQMSRLRSEDTAMYFCARQSNYDYDGWFAYWGQGTTVTVSS VL: DIVMTQSHKFMSTSVGDRVSITCKASQEVGTAVAWYQQKPGQSPKLLIYWASTRHTGVPDRFTGSGSGTDFTLTISNVQSEDLADYFCQQYSNYPLTFGAGAKLELKR",0,,,117,,150,0,,,0,143,43,,% binding of 125I-IGF-1 [3]: 58%; % inhibition of the binding of PE-tagged MAB391 [26]: 50 to 60%; % binding of 125I-IGF-1 [4]: 71%; binding result [27]: no binding
"chimeric R1 antibody (cR1) (antibody, V domains shown, Mouse-human chimeric mAb of R1, R1 VH and VK in the pdHL2 vector with human constant regions; also called clones 709.2D2 and 710.2G2) VH: EVKLVESGGGLVQPGGSLKLSCATSGFTFSDYYMYWVRQTPEKRLEWVAYITNYGGSTYYPDTVKGRFTISRDNAKNTLYLQMSRLRSEDTAMYFCARQSNYDYDGWFAYWGQGTTVTVSS VL: DIVMTQSHKFMSTSVGDRVSITCKASQEVGTAVAWYQQKPGQSPKLLIYWASTRHTGVPDRFTGSGSGTDFTLTISNVQSEDLADYFCQQYSNYPLTFGAGAKLELKR",,,,,,,,,,,,,,binding result [28]: no binding; Kd [29]: ~0.1 nM
